Assay results reported in patent US6207419A, “Thrombin inhibitory agents and methods of using same” (The University of North Carolina at Chapel Hill, priority 1999, dated 2001).

Key:
[1] = tested on: plasma-purified α-thrombin; assay: Thrombin inhibition with heparin before and after carboxypeptidase A digest; assay type: biochemical, human; details: 2 hr, room temperature, FIG. 3
Method: Forty ng of CPA was combined with approximately 1 μg of recombinant protein and incubated at room temperature. Following a 2-hr incubation at room temperature, 2 mM EDTA was added to quench CPA activity. Controls were run in which EDTA was added to the reaction prior to the addition of CPA. CPA digested proteins were then assayed according to previously mentioned procedures.

chymotrypsin = assay: Chymotrypsin inhibition in the absence of glycosaminoglycan; assay type: biochemical
Method: Protease inhibition rates were determined as described previously (Rogers, S. J., Pratt, C. W., Whinna, H. C., and Church, F. C. (1992) J. Biol. Chem. 267(6), 3613-3617; Whinna, H. C., Choi, H. U., Rosenberg, L. C., and Church, F. C. (1993) J. Biol. Chem. 268, 3920-3924; Ciaccia, A. V., Cunningham, E. L., and Church, F. C. (1995) Protein Express. Purific. 6, 806-812; Ciaccia, A. V., Willemze, A. J., and Church, F. C. (1997) J. Biol. Chem. 272(2), 888-893). All assays were performed at room temperature in 96-well microtiter plates previously coated with 2 mg/mL BSA.
In the absence of glycosaminoglycan, 50-100 nM rHCII (wt, CHis6, CHis5 Pro, L444R, or L444R-CHis6) or rATIII (wt or CHis6) was incubated with 1 nM thrombin, 0.5 nM Factor Xa, 2 nM chymotrypsin, or 5 nM trypsin, in the presence of 1 mg/mL Polybrene (pB) (for thrombin and Factor Xa) and 2 mg/mL BSA in HNPN, pH 7.4.
(§1) Residual thrombin activity was measured with 150 μM GlyProArg-NA and 1 mg/mL pB in the absence of glycosaminoglycan, 2 mg/mL pB in the presence of heparin and 4 mg/mL in the presence of dermatan sulfate. Residual factor Xa activity was measured with 500 μM Spectrozyme FXa and 2mg/mL pB in the presence or absence of glycosaminoglycan. Residual chymotrypsin activity was measured with 150 μM AlaAlaProPhe-NA and residual trypsin activity was measured with 150 μM GlyProArg-NA. Substrate cleavage was measured by color development at 405 nM on a Vmax Kinetic Microplate Reader (Molecular Devices).
Assays were performed at least in triplicate on two or more recombinant protein preparations. All inhibition studies were measured under pseudo-first order conditions where inhibitor [I] is at least ten-fold higher than enzyme (protease) [E], and second-order rate constants were calculated as described previously (Ciaccia, A. V., Cunningham, E. L., and Church, F. C. (1995) Protein Express. Purific. 6, 806-812; Ciaccia, A. V., Willemze, A. J., and Church, F. C. (1997) J. Biol. Chem. 272(2), 888-893).

thrombin [2] = assay: Plasma-based thrombin inhibition assay; assay type: biochemical, human; details: for Inhibition Rate k2 × 10^8 (M^-1 min^-1), thrombin in plasma: 10 nM serpin
Method: The assay to evaluate rHCII (wt and rHCII-CHis6) in plasma was designed based on previously published methods (Tollefsen, D. M., and Pestka, C. A. (1985) Blood 66(4), 769-774; Griffith, M. J., Carraway, T., White, G. C., and Dombrose, F. A. (1983) Blood 61(1), 111-118). All assays were performed at room temperature in 96-well microtiter plates previously coated with 2 mg/mL BSA. This assay was performed using normal hemostasis reference plasma (REF), human antithrombin III-deficient plasma (DEF), or a 50:50 mixture of these plasmas (REF/DEF). Within the assay, 10 nM rHCII or rHCII-CHis6 was incubated for 15 sec with I nM thrombin and 1 μg/mL heparin or 50 μg/mL dermatan sulfate, in the presence of a 1:100 dilution of plasma. Residual thrombin activity was measured with 300 μM GPA and 2 mg/mL pB. Substrate cleavage was measured by color development at […] on a Vmax Kinetic Microplate Reader. Second order rate constants were measured at least in triplicate on two recombinant protein preparations as described in Example 4.

thrombin [3] = assay: Thrombin inhibition in the absence of glycosaminoglycan; assay type: biochemical, human
Method: All assays were performed at room temperature in 96-well microtiter plates previously coated with 2 mg/mL BSA.
as §1, with “GlyProArg-NA.” for “GlyProArg-NA. Substrate cleavage was measured by color development at 405 nM on a Vmax Kinetic Microplate Reader (Molecular Devices).”
Assays were performed at least in triplicate on two or more recombinant protein preparations.

thrombin [4] = assay: pH titration of thrombin inhibition; assay type: biochemical; details: pH 6.2 to pH 8; FIG. 6
Text: Therefore, it is possible that the enhanced thrombin inhibitory activity of rHCII-CHis6 (assayed at pH 7.4) is attributable to a charge on the carboxyl terminal tag. An assay was designed to measure thrombin inhibition by rHCII-CHis6 and wt-rHCII from pH 6.2 to pH 8.

B1: rHCII-CHis6: Recombinant HCII with six histidine residues added at the carboxyl terminus; SEQ ID NO:5 (protein)
chain: MKHSLNALLIFLIITSAWGGSKGPLDQLEKGGETAQSADPQWEQLNNKNLSMPLLPADFHKENTVTNDWIPEGEEDDDYLDLEKIFSEDDDYIDIVDSLSVSPTDSDVSAGNILQLFHGKSRIQRLNILNAKFAFNLYRVLKDQVNTFDNIFIAPVGISTAMGMISLGLKGETHEQVHSILHFKDFVNASSKYEITTIHNLFRKLTHRLFRRNFGYTLRSVNDLYIQKQFPILLDFRTKVREYYFAEAQIADFSDPAFISKTNNHIMKLTKGLIKDALENIDPATQMMILNCIYFKGSWVNKFPVEMTHNHNFRLNEREVVKVSMMQTKGNFLAANDQELDCDILQLEYVGGISMLIVVPHKMSGMKTLEAQLTPRVVERWQKSMTNRTREVLLPKFKLEKNYNLVESLKLMGIRMLFDKNGNMAGISDQRIAIDLFKHQGTITVNEEGTQATTVTTVGFMPLSTQVRFTVDRPFLFLIYEHRTSCLLFMGRVANPSRSHHHHHH
modifications: C-terminal His6 tag
change of heparin-dependent thrombin inhibition after CPA digest, in words [1]: shifts to lower rates of inhibition
Ratio (mutant/wt serpin), chymotrypsin (chymotrypsin): .860
chymotrypsin inhibition compared with wt-rHCII, in words (chymotrypsin): essentially the same
k2 × 10^4 (M^-1 min^-1), chymotrypsin (chymotrypsin; pH 7.4, mean ± S.D.): 61.0 ± 16 × 10^4 (M^-1 min^-1)
increase of thrombin inhibition rate compared to wt-rHCII (thrombin [2]; 50 μg/mL dermatan sulfate, each of the plasma conditions): 1.2-1.3 fold
increase of thrombin inhibition rate compared to wt-rHCII (thrombin [2]; 50:50 mixture of REF/DEF, 1 μg/mL heparin): 1.5 fold
increase of thrombin inhibition rate compared to wt-rHCII (thrombin [2]; DEF plasma, 1 μg/mL heparin): 4.6 fold
Inhibition Rate k2 × 10^8 (M^-1 min^-1), thrombin in plasma (thrombin [2]; Dermatan Sulfate (50 μg/mL), 50:50 Mixture (REF/DEF) plasma 1:100): 7.0 × 10^8 (M^-1 min^-1)
Inhibition Rate k2 × 10^8 (M^-1 min^-1), thrombin in plasma (thrombin [2]; Dermatan Sulfate (50 μg/mL), ATIII Deficient (DEF) plasma 1:100): 7.5 × 10^8 (M^-1 min^-1)
Inhibition Rate k2 × 10^8 (M^-1 min^-1), thrombin in plasma (thrombin [2]; Dermatan Sulfate (50 μg/mL), Normal Reference (REF) plasma 1:100): 7.2 × 10^8 (M^-1 min^-1)
Inhibition Rate k2 × 10^8 (M^-1 min^-1), thrombin in plasma (thrombin [2]; Heparin (1 μg/mL), 50:50 Mixture (REF/DEF) plasma 1:100): 2.8 ± .18 × 10^8 (M^-1 min^-1)
Inhibition Rate k2 × 10^8 (M^-1 min^-1), thrombin in plasma (thrombin [2]; Heparin (1 μg/mL), ATIII Deficient (DEF) plasma 1:100): 1.2 ± .10 × 10^8 (M^-1 min^-1)
Inhibition Rate k2 × 10^8 (M^-1 min^-1), thrombin in plasma (thrombin [2]; Heparin (1 μg/mL), Normal Reference (REF) plasma 1:100): 3.3 ± .37 × 10^8 (M^-1 min^-1)
increase of thrombin inhibition rate compared to wt-rHCII (thrombin [2]; REF plasma, 1 μg/mL heparin): 1.5 fold
Ratio (mutant/wt serpin), thrombin (thrombin [3]): 1.48
rate of thrombin inhibition relative to wt-rHCII (thrombin [3]): 1.5 fold
k2 × 10^4 (M^-1 min^-1), thrombin (thrombin [3]; pH 7.4, mean ± S.D.): 1.92 ± .10 × 10^4 (M^-1 min^-1)
inhibition of thrombin over pH titration, in words (thrombin [4]): greater than that by wt-rHCII
